Assay results reported in patent US20180214548A1 (SHANGHAI YUNYI HEALTHCARE AND TECHNOLOGY, published 2018).

Key:
[1] = biological target: T1, cyno PD-1^ECD-hFc protein (cyno monkey, UniProt B0LAJ3 25-167); assay: ELISA, coated cyno PD-1ECD-hFc; antibody 100 nM
T1 construct: Prepared by the method for Immunogen A; also called Cyno Monkey PD-1^ECD-hFc; cyno monkey PD-1-hFc; not shown: human IgG Fc fragment (hFc) and its junction to the ECD
Experimental: (§1) 100 uL of the diluted recombinant proteins were added to each well of 96-well plate. The plates were sealed with plastic film and incubated at 4° C. overnight. The plates were washed twice with wash buffer (PBS+0.01% (v/v) Tween20), and incubated with blocking buffer (PBS+0.01% (v/v) Tween20+1% (w/w) BSA) at room temperature for 2 hours. The blocking buffer was aspirated away, and 100 uL of purified anti-PD-1 antibodies were added to each well and incubated for 2 hours at 37° C. The plates were washed three times with wash buffer (PBS+0.01% (v/v) Tween20). HRP-conjugated secondary antibody (Sigma) was added to each well and incubated for 2 hours at 37° C. After the plates were washed three times with wash buffer, 100 uL TMB substrate was added to each well and incubated for 30 minutes at room temperature. 100 uL stop solution (0.1N HCl) was added to each well to stop the reaction. The absorbance at 450 nm was measured with an ELISA plate reader (384plus SpectraMax, Molecular Devices).

[2] = biological target: T2, full length human PD-1 on cells (human, UniProt Q15116 25-288); assay: flow cytometry, CHO-K1-hPD-1 cells; antibody 1 nM
T2 construct: Also used here for PD-1 on human T cells/PBMC; also called CHO-K1-hPD-1; hPD-1
T2 sequence (Q15116 25-288 limits assumed): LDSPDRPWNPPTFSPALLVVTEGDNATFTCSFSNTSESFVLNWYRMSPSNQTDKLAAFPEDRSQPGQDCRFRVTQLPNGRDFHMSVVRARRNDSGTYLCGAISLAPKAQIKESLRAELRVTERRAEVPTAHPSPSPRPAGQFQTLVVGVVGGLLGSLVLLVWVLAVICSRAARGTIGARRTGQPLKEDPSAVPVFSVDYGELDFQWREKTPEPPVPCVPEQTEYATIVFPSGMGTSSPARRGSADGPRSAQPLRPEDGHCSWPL
Description: CHO-K1 cells were stably transfected with pIRES plasmid containing the nucleic acid sequence encoding full length human PD-1 (see Example 2, step 2) to generate CHO-K1 cells stably expressing human PD-1 (herein referred to as CHO-K1-hPD-1 cells). Other CHO-K1 were stably transfected with pIRES plasmid containing the nucleic acid sequence encoding full length cyno PD-1 to generate CHO-K1 cells stably expressing cyno PD-1 (herein referred to as CHO-K1-cPD-1 cells). CHO-K1-hPD-1 and CHO-K1-cPD-1 cells were cultured and expanded in T-75 culture flasks to 90% confluence. The culture media was aspirated, and the cells were washed twice with HBSS (Hanks Balanced Salt Solution, Invitrogen). The cells were treated with enzyme-free cell dissociation solution (Versene solution, Invitrogen) and collected. The cells were then washed twice with HBSS, cell counts were determined, and cells were resuspended with HBSS at 2×10⁶ cells/mL. Goat serum was added to the cell suspension to a final concentration of 1%, and the cells were blocked for 30 minutes on ice and then washed twice with HBSS. The cells were collected after centrifugation and resuspended in FACS buffer (HBSS+1% BSA, v/v) at 2×10⁶ cells/mL. 100 uL of the cell suspension were then added to each well of 96-well plate. 100 uL of purified anti-PD-1 antibodies from Example 2 were added to each well of the 96-well plate and incubated for 2 hours on ice. […] The samples were washed three times with FACS buffer, and 100 uL fixation buffer (4% paraformaldehyde v/v) were added to each well and incubated for 10 minutes. The cells were then washed twice with FACS buffer and resuspended in 100 uL FACS buffer. The mean fluorescence intensity (MFI) was determined using FACS Calibur (BD), and the results are shown in FIGS. 7-8 and in Tables 10-11.

[3] = biological target: T3, human PD-1^ECD-hFc protein (Immunogen A) (human, UniProt Q15116 25-167); assay: protein-based receptor-ligand blocking ELISA: coated PD-1ECD-hFc, blocked ligand biotinylated PD-L1ECD, streptavidin-HRP
T3 construct: Biotinylated for the Octet assay; also called PD-1-hFc; hPD-1^ECD-hFc; not shown: human IgG Fc fragment (hFc)
T3 sequence (Q15116 25-167): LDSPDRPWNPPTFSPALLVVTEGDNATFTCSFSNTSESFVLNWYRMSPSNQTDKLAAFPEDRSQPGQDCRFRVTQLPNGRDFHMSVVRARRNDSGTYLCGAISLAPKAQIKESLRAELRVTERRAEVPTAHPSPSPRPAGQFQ
Experimental: Purified PD-1^ECD-hFc (Example 2) was diluted with PBS to a final concentration of 1.0 ug/mL, and 100 uL diluted PD-1^ECD-hFc were added to each well of a 96-well plate that was then sealed with plastic film and incubated at 4° C. overnight. The plate was washed twice with wash buffer (PBS+0.01% (v/v) Tween 20) and incubated with blocking buffer (PBS+[…]) at room temperature for 2 hours. The blocking buffer was aspirated, and 50 uL purified anti-PD-1 antibodies from Example 2 were added to each well of 96-well plate. […] The plate was washed three times with wash buffer (PBS+0.01% (v/v) Tween 20). 100 uL HRP-conjugated streptavidin (Sigma) were then added to each well and incubated at 37° C. for 2 hours. The plate was then washed three times with wash buffer, and 100 uL TMB substrate were added to each well. After 30 minutes of incubation at room temperature, the reaction was stopped by adding 100 uL stop solution (0.1N HCl). The absorbance at OD450 nm was measured with an ELISA plate reader (384plus SpectraMax, Molecular Devices).

[4] = biological target: T3, human PD-1^ECD-hFc protein (Immunogen A); assay: ELISA, coated human PD-1ECD-hFc; antibody 100 nM
Experimental: as §1

[5] = biological target: T1, cyno PD-1^ECD-hFc protein; assay: ELISA, coated cyno PD-1ECD-hFc; antibody 10 nM
Experimental: as §1

[6] = biological target: T1, cyno PD-1^ECD-hFc protein; assay: ELISA, coated cyno PD-1ECD-hFc; antibody 0.01 nM
Experimental: as §1

[7] = biological target: T3, human PD-1^ECD-hFc protein (Immunogen A); assay: ELISA, coated human PD-1ECD-hFc; antibody 1 nM
Experimental: as §1

[8] = biological target: T2, full length human PD-1 on cells; assay: cell-based receptor-ligand blocking, flow cytometry: CHO-K1-hPD-1 cells, blocked ligand biotinylated PD-L1-Fc, streptavidin-Alexa 488
Experimental: CHO-K1-hPD-1 cells were cultured and expanded in T-75 culture flasks to 60-80% confluence. The culture media was aspirated, and the cells were washed twice with PBS. The cells were treated with TrypLE™ Express (Invitrogen) and collected. Trypsin was neutralized by the addition of 8 mL culture medium, and cell counts were determined. […] The cells were blocked for 15 minutes at 37° C. Meanwhile, the wells of 96-well round-bottom plates were blocked with 200 uL blocking buffer for 1 hour at 37° C. The blocking buffer was discarded, and 200 uL cells were dispensed to each well of the 96-well plates (2×10^5 cells/well). The plates were centrifuged at 500 g for 5 minutes, and the supernatants were discarded. The cells were resuspended in 100 uL antibody prepared in blocking buffer. […] The plates were incubated at 4° C. for 90 minutes and washed twice with 200 uL blocking buffer. […] The plates were washed three times with blocking buffer and resuspended in 200 uL blocking buffer. The mean fluorescence intensity (MFI) was determined using FACS Calibur (BD).

T1 sequence (B0LAJ3 entry or part of it limits assumed): as the sequence (Q15116 25-167) above, with D2E, P10A, V19L, T35A, Q75R counted along it

Binder	OD450 nm [1]	Mean fluorescence intensity [2]	IC50 (read off the curve) [3]	OD450 nm [4]	OD450 nm [5]	OD450 nm [6]	OD450 nm [7]	IC50 (read off the curve) [8] [nM]
chimeric anti-PD-1 antibody 76G5B3 (antibody, V domains shown, Purified from hybridoma of Harbour H2L2 mice: human variable regions, rat constant regions) VH: QVQLVESGGGVVQPGRSLRLSCAASGFTFSDYGFHWVRQAPGKGLEWVAVIWYDGSNEYYTDSVKGRFTISRDNSKNTLYLQMNSLRAEDTAMYFCVVNPFDYWGQGTLVTVSS VL: DIQMTQSPSSLSAFVGDRVTITCRASQGINHYLAWYQQKPGKAPNLLILAASTLLSGVPSRFGGRGSGTDFTLIISSLQPEDVATYYCQKYDSAPYTFGQGTKLEIK	1.89	166	~0.9 nM	3.05	1.62	0.14	3.07	~0.8
chimeric anti-PD-1 antibody 32B5C7 (antibody, V domains shown, Purified from hybridoma of Harbour H2L2 mice: human variable regions, rat constant regions) VH: EVQLLESGGGLVQPGGSLRLSCAASGFTFSSYAMSWVRQAPGKGLEWVSTISGSGGTTYYADSVKGRFTISRDNSKNTLYLQMNSLRAEDTAVYYCTLTGDPDYWGQGTLVTVSS VL: EIVLTQSPATLSLSPGERATLSCRASQSVSSYLAWYQQKPGQAPRLLIYDASKRATGIPARFSGSGSGTDFTLTISSLEPEDFAVYYCQQRNNWPLTFGGGTKVEIK	1.66	51.1	~1 nM	3.05	1.51	0.1	3.02	~6
chimeric anti-PD-1 antibody 21G8F11 (antibody, V domains shown, Purified from hybridoma of Harbour H2L2 mice: human variable regions, rat constant regions) VH: EVQLLESGGGLAQPGGSLRLSCAASGFSFNTYLMHWVRQAPGKGLEWVSAISGGGGNTYYADSVKGRFTISRDNSKNTLYLQMNSLRAEDTAVYYCAKENRIPVAPFDYWGQGTLVTVSS VL: DIQMTQSPSTLSASVGDRVTITCRASQSISTWLAWYQQKPGKAPKLLIYKASSLESGVPSRFSGSGSGTEFTLTISSLQPDDLATYYCQQYNSFSWTFGQGTKVEIK	2.61	166	~0.4 µg/mL	2.73	2.63	0.27	2.83	~6
